Source: patent publication US20240181073A1, “Antibody-Drug Conjugates Comprising an Anti-BCMA Antibody” (Sorrento Therapeutics, Inc., priority 2021, published 2024)

Experiments:
[1] = target: T1, Human BCMA (B Cell Maturation Antigen) (human, UniProt Q02223 1-184); assay: cell-based or functional assay
T1 sequence: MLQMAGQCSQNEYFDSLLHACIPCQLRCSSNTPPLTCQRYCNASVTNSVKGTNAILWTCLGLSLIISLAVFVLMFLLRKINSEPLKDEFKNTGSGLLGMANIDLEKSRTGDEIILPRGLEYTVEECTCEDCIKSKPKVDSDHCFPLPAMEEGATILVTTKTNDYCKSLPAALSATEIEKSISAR

[2] = target: T1, Human BCMA (B Cell Maturation Antigen); assay: cell-based or functional assay; remark: listed apart in the source
BCMA-negative K562 = assay: In vitro cytotoxicity assay (CellTiter-Glo 2.0, 384-well), Example B2; assay type: cell-based, human; details: 5-day assays, FIG. 8
Protocol: (§1) The in vitro efficacies of ADCs anti-BCMA-Compound 50, anti-BCMA-Compound 51, anti-BCMA-Compound 52, and anti-BCMA-Compound 53, were compared to anti-BCMA-Compound 3. Anti-BCMA-AB1 clone was conjugated with compounds 50, 51, 52, 53 or 3 and the ADCs were evaluated using the following human cancer cell lines: BCMA-negative K562 and BCMA-positive NCI-H929, purchased from the American Type Culture Collection (ATCC; Manassas, VA).
(§2) Cell Culture Method: The cell lines were cultured in RPMI-1640 medium (Catalog #10-041-CV: Corning) supplemented with 10-20% fetal bovine serum (FBS; Catalog #MT35011CV; Corning) and 1× penicillin-streptomycin (Catalog #30-002-Cl, Corning) and maintained at 37° C. in a 5% C02 humidified environment. Viable cell counts were made by Trypan blue exclusion using a Countess or Countess II automated cell counter.
(§3) The in vitro assays were performed as follows: All cells were harvested by removal of a portion of the cell culture suspension followed by centrifugation at 300 g for 5 minutes, followed by resuspension in cell culture medium (described above in Cell Culture method), viable cell count (as described above in Cell Culture method), and then seeded into 384-well white wall clear bottom plates (Catalog #3765, Corning) at a density of 2,500 cells/well in growth media. Plates were maintained at 37° C. The outer wells of plates contained medium only and were used for background subtraction for the cell viability assay. Working solutions of test articles were prepared at 2× final concentrations with 5-fold serial dilutions in complete growth medium. Cell treatment was performed in either technical triplicates or duplicates and maintained at 37° C. for 120-hour assay. After treatment, cell viability was determined by CellTiter-Glo 2.0 assay (Catalog #G9243; Promega; Madison, WI, USA) based on the manufacturer's instructions. CellTiter Glo reagent reacts with ATP in metabolically active cells to give a luminescent readout that is directly proportional to the number of viable cells. Briefly, plates were removed from the incubator and equilibrated to room temperature before addition of CellTiter Glo reagent. Luminescence was measured using a Tecan Spark microplate reader (Tecan; Mannedorf, Switzerland).
(§4) Data Analysis: For Cytotoxicity assays, raw luminescence data was background subtracted with average luminescence from the outer wells containing medium only and normalized to untreated controls using Excel (Microsoft; Albuquerque, NM). Dose-response relationships and EC50 values were determined based on non-linear regression analysis of normalized data fit to a four-parameter logistic equation using GraphPad Prism 8.0.

BCMA-positive NCI-H929 = assay: as above; assay type: cell-based, human
Protocol: as §1, §2, §3, §4

[3] = target: T1, Human BCMA (B Cell Maturation Antigen); assay: cell-based or functional assay; remark: listed apart in the source

B1: anti-BCMA-AB1-Compound 1 (antibody, human IgG1, V domains shown)
VH: EVQLVESGGGLVKPGGSLRLSCAASGFTSSTAWMSWVRQAPGKGLEWVGRIKSKSDGGTTDYAAPVKGRFTISRDDSKNTLFLQMNSLKTEDTAVYYCAKGGGTYGYWGQGTTVTVSS
VL: QSVLTQPASVSGSPGQSVTISCTGTSSAHGGHYYVSWYQQHPGKAPKLMIYDVSNRPSGVSNRFSGSKSGNTASLTISGLQAEDEADYYCGSYTSSGSYVFGTGTKLTVL
modifications: drug-linker Compound 1 on antibody cysteine thiols (positions not stated)
- EC50 of cell viability (Cell Titer-Glo), MM.1R (BCMA+) cells, 5-day assay [1]: 1.02 nM
- EC50 of cell viability (Cell Titer-Glo), NCI-H929 (BCMA+) cells, 5-day assay [1]: 0.168 nM

B2: anti-BCMA-AB2-Compound 6 (antibody, V domains shown)
VH: EVQLVESGGGLVKPGGSLRLSCAASGFTSSTAWMSWVRQAPGKGLEWVGRIKSKSDGGTTDYAAPVKGRFTISRDDSKNTLFLQMNSLKTEDTAVYYCAKGGGTYGYWGQGTTVTVSS
VL: QSALTQPASVSGSPGQSVTISCTGTSSDGGGHTYVSWYQQHPGKAPKLMIYDVSNRPSWVSNRFSGSKSGNTASLTISGLQAEDEADYYCGSYTSSGSYVFGTGTKLTVL
modifications: drug-linker Compound 6 on antibody cysteine thiols (positions not stated)
- EC50 of cell viability (Cell Titer-Glo), MM.1R (BCMA+) cells [2]: 129 nM
- EC50 of cell viability (Cell Titer-Glo), NCI-H929 (BCMA+) cells [2]: 9.44 nM

B3: ADC-50 (conjugate)
VH: EVQLVESGGGLVKPGGSLRLSCAASGFTSSTAWMSWVRQAPGKGLEWVGRIKSKSDGGTTDYAAPVKGRFTISRDDSKNTLFLQMNSLKTEDTAVYYCAKGGGTYGYWGQGTTVTVSS
VL: QSVLTQPASVSGSPGQSVTISCTGTSSAHGGHYYVSWYQQHPGKAPKLMIYDVSNRPSGVSNRFSGSKSGNTASLTISGLQAEDEADYYCGSYTSSGSYVFGTGTKLTVL
- activity against K562 cells (BCMA-negative K562): did not show activity
- effect on NCI-H929 cell viability (BCMA-positive NCI-H929; 5-day assays, FIG. 8): dose-dependently reduced
- decrease in potency, ADC-50 (C-lock linkage) relative to ADC-53 (PFP linkage) (BCMA-positive NCI-H929; NCI-H929): more than 2 fold
- EC50 (BCMA-positive NCI-H929; Table 7, 120-hour (5-day) assay, AB1 clone): 0.76 nM
- EC50 order of magnitude (BCMA-positive NCI-H929; comparison of linker chemistry among C-lock conjugations): sub-nanomolar

B4: anti-BCMA-AB1-Compound 4 (antibody, human IgG1, V domains shown)
VH: EVQLVESGGGLVKPGGSLRLSCAASGFTSSTAWMSWVRQAPGKGLEWVGRIKSKSDGGTTDYAAPVKGRFTISRDDSKNTLFLQMNSLKTEDTAVYYCAKGGGTYGYWGQGTTVTVSS
VL: QSVLTQPASVSGSPGQSVTISCTGTSSAHGGHYYVSWYQQHPGKAPKLMIYDVSNRPSGVSNRFSGSKSGNTASLTISGLQAEDEADYYCGSYTSSGSYVFGTGTKLTVL
modifications: drug-linker Compound 4 on antibody cysteine thiols (C-lock conjugation; positions not stated)
- EC50 of cell viability (Cell Titer-Glo), MM.1R (BCMA+) cells, 4-day assay [3]: > 1000 nM
- EC50 of cell viability (Cell Titer-Glo), NCI-H929 (BCMA+) cells, 4-day assay [3]: 13.1 nM

B5: anti-BCMA-AB1-Compound 5 (antibody, human IgG1, V domains shown)
VH: EVQLVESGGGLVKPGGSLRLSCAASGFTSSTAWMSWVRQAPGKGLEWVGRIKSKSDGGTTDYAAPVKGRFTISRDDSKNTLFLQMNSLKTEDTAVYYCAKGGGTYGYWGQGTTVTVSS
VL: QSVLTQPASVSGSPGQSVTISCTGTSSAHGGHYYVSWYQQHPGKAPKLMIYDVSNRPSGVSNRFSGSKSGNTASLTISGLQAEDEADYYCGSYTSSGSYVFGTGTKLTVL
modifications: drug-linker Compound 5 on antibody cysteine thiols (C-lock conjugation; positions not stated)
- EC50 of cell viability (Cell Titer-Glo), MM.1R (BCMA+) cells, 4-day assay [3]: 20.5 nM
- EC50 of cell viability (Cell Titer-Glo), NCI-H929 (BCMA+) cells, 4-day assay [3]: 3.04 nM

B6: anti-BCMA-AB2-Compound 4 (antibody, V domains shown)
VH: EVQLVESGGGLVKPGGSLRLSCAASGFTSSTAWMSWVRQAPGKGLEWVGRIKSKSDGGTTDYAAPVKGRFTISRDDSKNTLFLQMNSLKTEDTAVYYCAKGGGTYGYWGQGTTVTVSS
VL: QSALTQPASVSGSPGQSVTISCTGTSSDGGGHTYVSWYQQHPGKAPKLMIYDVSNRPSWVSNRFSGSKSGNTASLTISGLQAEDEADYYCGSYTSSGSYVFGTGTKLTVL
modifications: drug-linker Compound 4 on antibody cysteine thiols (positions not stated)
- EC50 of cell viability (Cell Titer-Glo), MM.1R (BCMA+) cells [2]: > 1000 nM
- EC50 of cell viability (Cell Titer-Glo), NCI-H929 (BCMA+) cells [2]: 59 nM

B7: anti-BCMA-AB2-Compound 7 (antibody, V domains shown)
VH: EVQLVESGGGLVKPGGSLRLSCAASGFTSSTAWMSWVRQAPGKGLEWVGRIKSKSDGGTTDYAAPVKGRFTISRDDSKNTLFLQMNSLKTEDTAVYYCAKGGGTYGYWGQGTTVTVSS
VL: QSALTQPASVSGSPGQSVTISCTGTSSDGGGHTYVSWYQQHPGKAPKLMIYDVSNRPSWVSNRFSGSKSGNTASLTISGLQAEDEADYYCGSYTSSGSYVFGTGTKLTVL
modifications: drug-linker Compound 7 on antibody cysteine thiols (positions not stated)
- EC50 of cell viability (Cell Titer-Glo), MM.1R (BCMA+) cells [2]: 259 nM
- EC50 of cell viability (Cell Titer-Glo), NCI-H929 (BCMA+) cells [2]: 19.4 nM
